Target: GFP–TGN46 (UniProt O43493)
Experiment: single-molecule GFP step-photobleaching by TIRF (NativeNanoBleach); ChloroSMA60-extracted total membrane of cells expressing GFP–TGN46 passed over glass slides with streptavidin and biotinylated GFP nanobody; discs captured and GFP bleaching steps counted; 1,000–1,500 particles for each biological replicate, corrected for GFP maturation efficiency

Sequence of GFP–TGN46, O43493 22-437 (natural protein; other documents disagree on this pair) (O43493 22-437): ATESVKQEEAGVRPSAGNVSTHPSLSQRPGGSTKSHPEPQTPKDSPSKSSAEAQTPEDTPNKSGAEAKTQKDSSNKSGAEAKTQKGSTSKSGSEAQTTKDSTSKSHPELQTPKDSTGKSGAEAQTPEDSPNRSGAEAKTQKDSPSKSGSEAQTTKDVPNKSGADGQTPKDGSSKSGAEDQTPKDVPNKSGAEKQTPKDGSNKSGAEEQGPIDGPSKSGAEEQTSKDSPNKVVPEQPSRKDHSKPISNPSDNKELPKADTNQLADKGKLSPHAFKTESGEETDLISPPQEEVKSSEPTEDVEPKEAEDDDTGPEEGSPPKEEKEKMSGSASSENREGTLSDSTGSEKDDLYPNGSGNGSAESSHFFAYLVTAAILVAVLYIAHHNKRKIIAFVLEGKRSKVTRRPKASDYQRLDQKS

GFP–TGN46, O43493 22-437 (natural protein; other documents disagree on this pair)
stoichiometry N: 1 to 4

Reference: publication PMC11810782
